B1: Protein sprouty homolog 2 (Homo sapiens), O43597 (parent)
chain: MEARAQSGNGSQPLLQTPRDGGRQRGEPDPRDALTQQVHVLSLDQIRAIRNTNEYTEGPTVVPRPGLKPAPRPSTQHKHERLHGLPEHRQPPRLQHSQVHSSARAPLSRSISTVSSGSRSSTRTSTSSSSSEQRLLGSSFSSGPVADGIIRVQPKSELKPGELKPLSKEDLGLHAYRCEDCGKCKCKECTYPRPLPSDWICDKQCLCSAQNVIDYGTCVCCVKGLFYHCSNDDEDNCADNPCSCSQSHCCTRWSAMGVMSLFLPCLWCYLPAKGCLKLCQGCYDRVNRPGCRCKNSNTVCCKVPTVPPRNFEKPT
B2: Protein sprouty homolog 1 (Homo sapiens), O43609 (parent)
chain: MDPQNQHGSGSSLVVIQQPSLDSRQRLDYEREIQPTAILSLDQIKAIRGSNEYTEGPSVVKRPAPRTAPRQEKHERTHEIIPINVNNNYEHRHTSHLGHAVLPSNARGPILSRSTSTGSAASSGSNSSASSEQGLLGRSPPTRPVPGHRSERAIRTQPKQLIVDDLKGSLKEDLTQHKFICEQCGKCKCGECTAPRTLPSCLACNRQCLCSAESMVEYGTCMCLVKGIFYHCSNDDEGDSYSDNPCSCSQSHCCSRYLCMGAMSLFLPCLLCYPPAKGCLKLCRRCYDWIHRPGCRCKNSNTVYCKLESCPSRGQGKPS

Key:
cbl_human CBL, P22681 [1] = variants of: B1; conditions: with cbl_human CBL
grb2_human GRB2, P62993 [2] = variants of: B1; conditions: with grb2_human GRB2, P62993
Target sequence in this assay (P62993 whole entry, looked up): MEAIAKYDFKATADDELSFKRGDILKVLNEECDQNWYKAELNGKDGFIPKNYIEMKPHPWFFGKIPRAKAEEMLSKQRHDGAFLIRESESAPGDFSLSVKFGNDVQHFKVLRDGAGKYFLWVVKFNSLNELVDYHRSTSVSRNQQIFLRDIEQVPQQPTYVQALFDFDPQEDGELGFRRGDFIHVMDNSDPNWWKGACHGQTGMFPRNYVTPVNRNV

cbl_human CBL, P22681 [3] = variants of: B2; conditions: with cbl_human CBL; remark: listed apart in the source
grb2_human GRB2, P62993 [4] = variants of: B2; conditions: with grb2_human GRB2, P62993; remark: listed apart in the source
Target sequence in this assay (P62993 whole entry, looked up): as above

Question: Which results are given for MEARAQSGNGSQPLLQTPRDGGRQRGEPDPRDALTQQVHVLSLDQIRAIRNTNEFTEGPTVVPRPGLKPAPRPSTQHKHERLHGLPEHRQPPRLQHSQVHSSARAPLSRSISTVSSGSRSSTRTSTSSSSSEQRLLGSSFSSGPVADGIIRVQPKSELKPGELKPLSKEDLGLHAYRCEDCGKCKCKECTYPRPLPSDWICDKQCLCSAQNVIDYGTCVCCVKGLFYHCSNDDEDNCADNPCSCSQSHCCTRWSAMGVMSLFLPCLWCYLPAKGCLKLCQGCYDRVNRPGCRCKNSNTVCCKVPTVPPRNFEKPT [Y55F]?
Answer: effect of a mutation on the interaction (cbl_human CBL, P22681 [1]): disrupting interaction; effect of a mutation on the interaction (grb2_human GRB2, P62993 [2]): decreasing interaction

Question: Which results are given for MDPQNQHGSGSSLVVIQQPSLDSRQRLDYEREIQPTAILSLDQIKAIRGSNEFTEGPSVVKRPAPRTAPRQEKHERTHEIIPINVNNNYEHRHTSHLGHAVLPSNARGPILSRSTSTGSAASSGSNSSASSEQGLLGRSPPTRPVPGHRSERAIRTQPKQLIVDDLKGSLKEDLTQHKFICEQCGKCKCGECTAPRTLPSCLACNRQCLCSAESMVEYGTCMCLVKGIFYHCSNDDEGDSYSDNPCSCSQSHCCSRYLCMGAMSLFLPCLLCYPPAKGCLKLCRRCYDWIHRPGCRCKNSNTVYCKLESCPSRGQGKPS [Y53F]?
Answer: effect of a mutation on the interaction (cbl_human CBL, P22681 [3]): disrupting interaction; effect of a mutation on the interaction (grb2_human GRB2, P62993 [4]): decreasing interaction

Source: IntAct's records for PubMed 16893902
